Test results taken from article PMC10648788, “Ahf-Caltide, a Novel Polypeptide Derived from Calpastatin, Protects against Oxidative Stress Injury by Stabilizing the Expression of CaV1.2 Calcium Channel” (International Journal of Molecular Sciences, 2023).

T1: GST-IQ, IQ motif of the CaV1.2 channel alpha1 subunit (UniProt O35505 1648-1668)
T1 construct: CaV1.2 calcium channel alpha1 subunit, IQ motif, a.a; 1648-1668, GenBank AB016287; also called IQ domain; source: E. coli BL21, purified (Glutathione Sepharose 4B)
T1 chain (looked up): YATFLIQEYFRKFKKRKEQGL

B1: Calpastatin (CAST) domain L (domain or fragment, UniProt P20810 3-148, looked up)
chain: PTETKAIPVSQQMEGPHLPNKKKHKKQAVKTEPEKKSQSTKLSVVHEKKSQEGKPKEHTEPKSLPKQASDTGSNDAHNKKAVSRSAEQQPSEKSTEPKTKPQDMISAGGESVAGITAISGKPGDKKKEKKSLTPAVPVESKPDKPS
notes: calpastatin (CAST) domain L (CSL), a.a; In the H2O2 experiments CSL was incubated with H2O2 present; The chemical change is not defined; also called CSL; source: E. coli BL21, purified (Glutathione Sepharose 4B), GST removed using PreScission protease
B2: GST-NT, N terminus of the CaV1.2 channel alpha1 subunit (domain or fragment, UniProt O35505 6-140, looked up)
chain: QPTTPAYRPLPSHLSADTEVRGRGTLVHEAQLNCFYISPGGSNYGSPRPAHANINANAAAGLAPEHIPTPGAALSWQAAIDAGRQAKLMGSAGNTTISTVSSTQRKRQQYGKPKKQSGTTATRPPRALLCLTLKN
notes: CaV1.2 calcium channel alpha1 subunit, N terminus (NT), a.a; 6-140, GenBank AB016287; source: E. coli BL21, purified (Glutathione Sepharose 4B)

How the values were obtained:
Conditions in all cases: both partners purified
[1] = biological target: T2, GST-PreIQ, PreIQ motif of the CaV1.2 channel alpha1 subunit (UniProt O35505 1599-1639); experiment: pull-down; GST fusion (15 ug) with 10 uM CSL in 400 uL Tris buffer, 4 C, 4 h; [Ca2+] 10 uM, H2O2 10^-1 M; Coomassie-stained gel quantified
T2 construct: CaV1.2 calcium channel alpha1 subunit, PreIQ motif, a.a; 1599-1639, GenBank AB016287; source: E. coli BL21, purified (Glutathione Sepharose 4B)

[2] = biological target: T1, GST-IQ, IQ motif of the CaV1.2 channel …; experiment: as above
[3] = biological target: B2; experiment: as above
[4] = biological target: T3, GST-CT1, proximal portion of the C terminus of the CaV1.2 channel alpha1 subunit (UniProt O35505 1509-1789); experiment: as above
T3 construct: CaV1.2 calcium channel alpha1 subunit, CT1 (proximal portion of CT), a.a; 1509-1789, GenBank AB016287; source: E. coli BL21, purified (Glutathione Sepharose 4B)

[5] = biological target: T2, GST-PreIQ, PreIQ motif of the CaV1.2 …; experiment: pull-down; GST fusion (15 ug) with 10 uM CSL in 400 uL Tris buffer, 4 C, 4 h; [Ca2+] 10 uM, H2O2 0 M; Coomassie-stained gel quantified
[6] = biological target: T1, GST-IQ, IQ motif of the CaV1.2 channel …; experiment: as above
[7] = biological target: B2; experiment: as above
[8] = biological target: T3, GST-CT1, proximal portion of the C …; experiment: as above
[9] = biological target: T2, GST-PreIQ, PreIQ motif of the CaV1.2 …; experiment: pull-down; GST fusion (15 ug) with 10 uM CSL in 400 uL Tris buffer, 4 C, 4 h; [Ca2+] 10 uM, H2O2 10^-2 M; Coomassie-stained gel quantified
[10] = biological target: T1, GST-IQ, IQ motif of the CaV1.2 channel …; experiment: as above
[11] = biological target: B2; experiment: as above
[12] = biological target: T3, GST-CT1, proximal portion of the C …; experiment: as above
[13] = biological target: B1; experiment: pull-down; GST-NT (15 ug) incubated with CSL 0-30 uM for 4 h in 400 uL Tris buffer, [Ca2+] 25 nM; Coomassie-stained gel quantified; one-site fit, apparent Kd
[14] = biological target: B1; experiment: pull-down; GST-NT (15 ug) incubated with CSL 0-30 uM for 4 h in 400 uL Tris buffer, [Ca2+] 1 mM; Coomassie-stained gel quantified; one-site fit, apparent Kd
[15] = biological target: B1; experiment: pull-down; GST-NT (15 ug) incubated with CSL 0-30 uM for 4 h in 400 uL Tris buffer, [Ca2+] 10 uM; Coomassie-stained gel quantified; one-site fit, apparent Kd

T3 sequence (O35505 1509-1789): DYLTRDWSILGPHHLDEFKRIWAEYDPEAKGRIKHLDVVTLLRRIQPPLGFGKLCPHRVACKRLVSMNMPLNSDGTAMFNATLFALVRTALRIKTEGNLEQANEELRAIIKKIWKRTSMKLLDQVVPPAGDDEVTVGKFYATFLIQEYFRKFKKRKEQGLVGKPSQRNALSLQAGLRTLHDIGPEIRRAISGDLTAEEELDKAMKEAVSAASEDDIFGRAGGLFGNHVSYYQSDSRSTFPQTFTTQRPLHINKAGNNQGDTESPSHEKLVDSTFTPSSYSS
T2 sequence (O35505 1599-1639): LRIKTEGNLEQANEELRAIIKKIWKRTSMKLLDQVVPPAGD

Kd [13] [nM] | Kd [14] [nM] | Kd [15] [nM] | Binder | binding density of CSL [1] | binding density of CSL [2] | binding density of CSL [3] | binding density of CSL [4] | binding density of CSL [5] | binding density of CSL [6] | binding density of CSL [7] | binding density of CSL [8] | binding density of CSL [9] | binding density of CSL [10] | binding density of CSL [11] | binding density of CSL [12]
 |  |  | B1 | 0.16 | 0.26 | 0.46 | 0.68 | 0.16 | 0.15 | 0.46 | 0.52 | 0.16 | 0.34 | 0.46 | 1.12
1110 | 1320 | 1480 | B2 |  |  |  |  |  |  |  |  |  |  |  | 
